Experimental data from article PMC5898713.

Columns and labels:
[1] = molecular target: PhyT (formerly PhyP), T25 fusion; assay: BACTH β-galactosidase assay; conditions: Overnight cultures containing 0.5 mM IPTG and antibiotics for selection, 30°C; three biological replicates; parent: est. 3000; read off a plot
[2] = molecular target: NepR wild-type, T25 fusion; assay: BACTH β-galactosidase assay; conditions: Overnight cultures containing 0.5 mM IPTG and antibiotics for selection, 30°C; three biological replicates; parent: est. 1500; read off a plot

Row | response [1] [Miller units] | response [2] [Miller units] | Substance
1 | 1100 | 300 | PhyR wild-type, T18 fusion D194A
2 | 3100 | 7100 | PhyR wild-type, T18 fusion E235A
3 | 780 | 6900 | PhyR wild-type, T18 fusion D194A; E235A
